Entries after “also recorded” stand apart in the source; their conditions may differ.
Experiments:
[1] = test system: Notch signaling (ICD formation) in Hela cells stably expressing Notch1; assay: Western blot of Notch ICD formation in response to DLL4; assay type: cell-based; settings: 10 ug/ml soluble DLL4-Fc; western blot of cell lysates
Description: FIG. 8: Monoclonal Antibodies to the Notch Ligand Binding Domain Inhibit Notch Signaling. A) A schematic of the Notch signaling mechanism. Upon ligand binding, gamma secretase activity cleaves the Notch receptor and liberates the intracellular domain (ICD) to activate downstream Notch signaling. B) Monoclonal antibodies against the Notch ligand binding domain inhibit Notch signaling in response to Notch ligand DLL4.
In certain embodiments, the ability of antibodies against a Notch ligand binding region to block Notch signaling was measured by inhibition of Notch cleavage in response to ligand stimulation. Hela cells stably expressing Notch1 were cultured in DMEM supplemented with antibiotics and 10% FCS. Cells were then incubated in the presence of 10 ug/ml soluble DLL4-Fc protein in the presence or absence of monoclonal antibodies against a Notch ligand binding domain, control antibodies, antibodies against Notch1 binding outside the ligand binding region (13M57), and gamma secretase inhibitor DBZ. Cells were harvested and cell lysates analyzed by western blot using an antibody that recognizes the cleaved intracellular domain (ICD) of Notch generated in response to ligand induced signaling (FIG. 8A).

human Notch3 = human Notch3 (Homo sapiens, UniProt Q9UM47); assay: fAb binding to human Notch3 (phage display selection)
Protocol: (§1) In certain embodiments, phage display identified a specific fAb that binds to the ligand binding domain within Notch1. In certain embodiments, phage display identified a specific fAb that binds to the ligand binding domain within Notch3. In certain embodiments, a fAb was discovered that bound to the ligand binding domain of both Notch3 and Notch1. In certain embodiments, 2×10^13 Fab displaying phage particles from a human fAb phage library were incubated with cells expressing full length recombinant protein or passively immobilized recombinant protein fragments, non-specific phage were washed off, and then specific phage were eluted with either low pH (cells) or DTT (recombinant protein). The eluted output was used to infect TG1 F+ bacteria, rescued with helper phage, and then Fab display induced with IPTG (0.25 mM). The output of this rescued round one served as the starting point for further selections in rounds two, three, four, and five as indicated in Table 1.
(§2) For Notch3, the phage display library was panned for binding to the analogous epitope within Notch3 (comprising amino acid 403 of Notch3) using similar approach for as Notch1. […] The 122R5 heavy chain comprises the amino acids of SEQ ID NO: 9, including CDR1 (SEQ ID NO: 10); CDR2 (SEQ ID NO: 11) and CDR3 (SEQ ID NO: 12). […]

[2] = target: T1, wild type full length Notch1 (Homo sapiens, UniProt P46531); assay: FACS binding to HEK293 cells co-transfected with GFP and wild type Notch1; settings: HEK293 cells co-transfected with GFP
T1 construct: co-transfected with GFP and either wild type full length Notch1; expressed in transfected cells; host or cells: HEK293
Description: (§3) FIG. 4: Identification of a fAb that Binds a Critical Ligand Binding Domain of Notch1. FACS analysis of HEK 293 cells co-transfected with GFP and either wild type Notch or Notch1 E424Q using a human fAb identified by phage display as binding the ligand binding domain of Notch1. GFP expression marked cells expressing recombinant Notch1 protein (x-axis) and binding to Notch1 is indicated along the y-axis.
(§4) FIG. 5: Identification of an Antibody that Binds the Ligand Binding Region of Multiple Notch Receptors. FACS analysis of HEK 293 cells co-transfected with GFP and wild type Notch3, Notch1 or Notch1 E424Q using a human fAb identified by phage display as binding the ligand binding domain of Notch3. GFP expression marked transfected cells expressing recombinant Notch protein (x-axis). Binding of fAb is indicated on the y-axis.
(§5) To confirm that the lead Notch1 fAb was specific for the ligand binding region of Notch1, HEK293 cells were co-transfected with GFP and either wild type full length Notch1 or Notch1 containing the amino acid substitution E424Q.

Notch3 (E403Q) = Notch3 (E403Q) (Homo sapiens, UniProt Q9UM47, E403Q); assay: fAb binding to Notch3 with E403Q substitution
Description: For Notch3, the phage display library was panned for binding to the analogous epitope within Notch3 (comprising amino acid 403 of Notch3) using similar approach for as Notch1. […] The 122R5 heavy chain comprises the amino acids of SEQ ID NO: 9, including CDR1 (SEQ ID NO: 10); CDR2 (SEQ ID NO: 11) and CDR3 (SEQ ID NO: 12). The 122R5 light chain comprises the amino acids of SEQ ID NO: 13, including CDR1 (SEQ ID NO: 14); CDR2 (SEQ ID NO: 15) and CDR3 (SEQ ID NO: 16).

murine Notch3 = murine Notch3 (Mus musculus, UniProt Q61982); assay: fAb binding to murine Notch3 (phage display selection)
Protocol: as §1, §2

Notch1 E424Q = target: T2, Notch1 E424Q (Homo sapiens, UniProt P46531, E424Q); assay: FACS binding to HEK293 cells co-transfected with GFP and Notch1 E424Q; settings: HEK293 cells co-transfected with GFP
T2 construct: Full-length wild type Notch1 or Notch1 E424Q was co-transfected with GFP into HEK 293 cells; expressed in transfected cells; host or cells: HEK293
Description: as §3, §4, §5

T3 breast tumor cells = assay: T3 breast tumor xenograft growth; assay type: in vivo, NOD/SCID mice; settings: estrogen pellet
Protocol: (§6) FIG. 9: Monoclonal Antibodies to the Notch Ligand Binding Domain Inhibit Tumor Growth In Vivo. NOD/SCID mice were injected with dissociated PE13 (A) or T3 (B) breast tumor cells and treated with either control antibodies (black squares); anti-Notch ligand binding region antibodies 90R21 (open circles); control antibodies in combination with Paclitaxel (black triangles); or 90R21 antibodies in combination with Paclitaxel (open triangles).
(§7) In certain embodiments, tumor cells from a patient sample (solid tumor biopsy or pleural effusion) that have been passaged as a xenograft in mice were prepared for repassaging into experimental animals. Tumor tissue was removed under sterile conditions, cut up into small pieces, minced completely using sterile blades, and single cell suspensions obtained by enzymatic digestion and mechanical disruption. Specifically, pleural effusion cells or the resulting tumor pieces were mixed with ultra-pure collagenase III in culture medium (200-250 units of collagenase per mL) and incubated at 37° C. for 3-4 hours with pipetting up and down through a 10-mL pipette every 15-20 minutes. Digested cells were filtered through a […] nylon mesh, washed with RPMI/20% FBS, and washed twice with HBSS. […]
(§8) In certain embodiments, anti-Notch ligand binding region antibodies were analyzed for their ability to reduce the growth of breast tumors in vivo. […]

human Notch1 = target: T3, human Notch1 (Homo sapiens, UniProt P46531); assay: FACS: inhibition of DLL4 binding to Notch1 on stably transfected HEK293 cells; settings: soluble DLL4-fc, increasing concentrations of antibody
T3 construct: expressed in transfected cells
Protocol: FIG. 6: Affinity Matured mAbs that Bind the Ligand Binding Domain of Notch1 Inhibit Binding of DLL4 to Notch1. […] Three affinity matured variants were tested for their ability to block binding between DLL4 and Notch1 (y-axis) in the presence of increasing concentrations of antibody (x-axis).
The ability of antibodies specific for the critical ligand binding region to inhibit binding of Notch ligands to Notch was evaluated. In certain embodiments, the ability of a panel of affinity matured monoclonal antibodies specific for the Notch1 ligand binding region to inhibit binding of DLL4 to Notch1 was determined by FACS analysis (FIG. 6). HEK293 cells stably transfected with human Notch1 were incubated with soluble DLL4-fc fusion protein in the presence of increasing concentrations of 90R21, 90R22, and 90R29 antibodies. […] HEK293 cells co-transfected with GFP and full length Notch3 were incubated with a soluble human Jag1-fc fusion protein in the absence (No Ab) or presence (122R03E1) of the fAb.

PE13 breast tumor cells = assay: PE13 breast tumor xenograft growth; assay type: in vivo, NOD/SCID mice
Protocol: as §6, §7, §8

[3] = antibody 10 mg/kg twice a week in combination with Paclitaxel 10 mg/kg once a week
[4] = antibody alone 10 mg/kg twice a week, vs control antibody, after 55 days

Sequence of human Notch3 (Q9UM47 40-2321): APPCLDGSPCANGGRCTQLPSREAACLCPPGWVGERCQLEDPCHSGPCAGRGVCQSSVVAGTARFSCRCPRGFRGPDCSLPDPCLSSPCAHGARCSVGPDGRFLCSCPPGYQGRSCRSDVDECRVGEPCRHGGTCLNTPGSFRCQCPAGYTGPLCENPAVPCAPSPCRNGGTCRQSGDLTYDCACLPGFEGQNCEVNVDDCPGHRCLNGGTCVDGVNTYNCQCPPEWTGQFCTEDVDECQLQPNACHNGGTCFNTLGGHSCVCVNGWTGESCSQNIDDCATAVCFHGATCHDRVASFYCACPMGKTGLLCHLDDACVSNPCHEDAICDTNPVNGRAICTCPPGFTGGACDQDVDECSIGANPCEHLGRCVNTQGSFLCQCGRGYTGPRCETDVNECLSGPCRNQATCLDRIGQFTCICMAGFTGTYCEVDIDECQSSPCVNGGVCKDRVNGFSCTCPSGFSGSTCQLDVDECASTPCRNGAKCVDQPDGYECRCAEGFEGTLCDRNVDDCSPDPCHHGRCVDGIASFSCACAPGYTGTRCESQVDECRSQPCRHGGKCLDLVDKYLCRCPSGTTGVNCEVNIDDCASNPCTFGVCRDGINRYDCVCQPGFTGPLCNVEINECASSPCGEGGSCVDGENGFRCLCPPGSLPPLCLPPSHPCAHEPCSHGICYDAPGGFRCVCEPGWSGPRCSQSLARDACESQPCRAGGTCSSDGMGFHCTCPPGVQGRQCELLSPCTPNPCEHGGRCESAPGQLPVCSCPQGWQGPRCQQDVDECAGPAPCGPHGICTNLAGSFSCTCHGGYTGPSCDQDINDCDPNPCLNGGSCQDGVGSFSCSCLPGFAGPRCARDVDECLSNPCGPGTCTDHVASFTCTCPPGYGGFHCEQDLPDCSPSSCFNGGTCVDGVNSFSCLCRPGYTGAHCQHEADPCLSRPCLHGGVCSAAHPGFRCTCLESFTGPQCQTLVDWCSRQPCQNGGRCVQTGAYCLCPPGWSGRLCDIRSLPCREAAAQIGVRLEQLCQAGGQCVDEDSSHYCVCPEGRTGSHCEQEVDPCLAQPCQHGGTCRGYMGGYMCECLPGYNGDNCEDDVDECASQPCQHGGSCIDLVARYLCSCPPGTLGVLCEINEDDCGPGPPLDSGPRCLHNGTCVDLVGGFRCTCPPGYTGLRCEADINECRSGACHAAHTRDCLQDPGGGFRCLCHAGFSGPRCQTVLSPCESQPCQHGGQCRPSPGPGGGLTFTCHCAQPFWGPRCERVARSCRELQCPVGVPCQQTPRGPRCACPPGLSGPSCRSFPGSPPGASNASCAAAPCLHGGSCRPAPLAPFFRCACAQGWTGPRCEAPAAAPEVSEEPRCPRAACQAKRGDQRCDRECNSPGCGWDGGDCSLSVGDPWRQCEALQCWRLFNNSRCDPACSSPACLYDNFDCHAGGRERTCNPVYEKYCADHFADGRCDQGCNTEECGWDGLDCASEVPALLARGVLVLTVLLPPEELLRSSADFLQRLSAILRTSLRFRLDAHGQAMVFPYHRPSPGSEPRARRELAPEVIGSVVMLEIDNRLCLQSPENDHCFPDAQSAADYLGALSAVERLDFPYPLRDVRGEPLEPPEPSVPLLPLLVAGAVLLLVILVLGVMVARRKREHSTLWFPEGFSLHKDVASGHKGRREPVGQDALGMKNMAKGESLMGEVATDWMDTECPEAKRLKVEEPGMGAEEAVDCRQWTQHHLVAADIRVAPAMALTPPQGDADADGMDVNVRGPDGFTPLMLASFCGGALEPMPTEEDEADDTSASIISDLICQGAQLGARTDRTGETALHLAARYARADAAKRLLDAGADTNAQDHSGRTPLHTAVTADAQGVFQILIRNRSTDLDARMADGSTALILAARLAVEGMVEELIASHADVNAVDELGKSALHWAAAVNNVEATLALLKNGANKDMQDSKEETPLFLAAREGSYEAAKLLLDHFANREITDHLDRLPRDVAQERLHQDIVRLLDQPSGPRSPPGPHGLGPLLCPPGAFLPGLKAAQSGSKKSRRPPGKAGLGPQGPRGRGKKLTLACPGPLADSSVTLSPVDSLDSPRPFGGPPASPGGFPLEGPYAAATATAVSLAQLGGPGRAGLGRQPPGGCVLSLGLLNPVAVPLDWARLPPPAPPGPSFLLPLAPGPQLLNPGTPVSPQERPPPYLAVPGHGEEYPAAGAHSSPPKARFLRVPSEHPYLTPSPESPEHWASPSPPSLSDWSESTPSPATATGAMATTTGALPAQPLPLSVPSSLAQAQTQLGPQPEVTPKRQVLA
Sequence of murine Notch3 (Q61982 40-2318): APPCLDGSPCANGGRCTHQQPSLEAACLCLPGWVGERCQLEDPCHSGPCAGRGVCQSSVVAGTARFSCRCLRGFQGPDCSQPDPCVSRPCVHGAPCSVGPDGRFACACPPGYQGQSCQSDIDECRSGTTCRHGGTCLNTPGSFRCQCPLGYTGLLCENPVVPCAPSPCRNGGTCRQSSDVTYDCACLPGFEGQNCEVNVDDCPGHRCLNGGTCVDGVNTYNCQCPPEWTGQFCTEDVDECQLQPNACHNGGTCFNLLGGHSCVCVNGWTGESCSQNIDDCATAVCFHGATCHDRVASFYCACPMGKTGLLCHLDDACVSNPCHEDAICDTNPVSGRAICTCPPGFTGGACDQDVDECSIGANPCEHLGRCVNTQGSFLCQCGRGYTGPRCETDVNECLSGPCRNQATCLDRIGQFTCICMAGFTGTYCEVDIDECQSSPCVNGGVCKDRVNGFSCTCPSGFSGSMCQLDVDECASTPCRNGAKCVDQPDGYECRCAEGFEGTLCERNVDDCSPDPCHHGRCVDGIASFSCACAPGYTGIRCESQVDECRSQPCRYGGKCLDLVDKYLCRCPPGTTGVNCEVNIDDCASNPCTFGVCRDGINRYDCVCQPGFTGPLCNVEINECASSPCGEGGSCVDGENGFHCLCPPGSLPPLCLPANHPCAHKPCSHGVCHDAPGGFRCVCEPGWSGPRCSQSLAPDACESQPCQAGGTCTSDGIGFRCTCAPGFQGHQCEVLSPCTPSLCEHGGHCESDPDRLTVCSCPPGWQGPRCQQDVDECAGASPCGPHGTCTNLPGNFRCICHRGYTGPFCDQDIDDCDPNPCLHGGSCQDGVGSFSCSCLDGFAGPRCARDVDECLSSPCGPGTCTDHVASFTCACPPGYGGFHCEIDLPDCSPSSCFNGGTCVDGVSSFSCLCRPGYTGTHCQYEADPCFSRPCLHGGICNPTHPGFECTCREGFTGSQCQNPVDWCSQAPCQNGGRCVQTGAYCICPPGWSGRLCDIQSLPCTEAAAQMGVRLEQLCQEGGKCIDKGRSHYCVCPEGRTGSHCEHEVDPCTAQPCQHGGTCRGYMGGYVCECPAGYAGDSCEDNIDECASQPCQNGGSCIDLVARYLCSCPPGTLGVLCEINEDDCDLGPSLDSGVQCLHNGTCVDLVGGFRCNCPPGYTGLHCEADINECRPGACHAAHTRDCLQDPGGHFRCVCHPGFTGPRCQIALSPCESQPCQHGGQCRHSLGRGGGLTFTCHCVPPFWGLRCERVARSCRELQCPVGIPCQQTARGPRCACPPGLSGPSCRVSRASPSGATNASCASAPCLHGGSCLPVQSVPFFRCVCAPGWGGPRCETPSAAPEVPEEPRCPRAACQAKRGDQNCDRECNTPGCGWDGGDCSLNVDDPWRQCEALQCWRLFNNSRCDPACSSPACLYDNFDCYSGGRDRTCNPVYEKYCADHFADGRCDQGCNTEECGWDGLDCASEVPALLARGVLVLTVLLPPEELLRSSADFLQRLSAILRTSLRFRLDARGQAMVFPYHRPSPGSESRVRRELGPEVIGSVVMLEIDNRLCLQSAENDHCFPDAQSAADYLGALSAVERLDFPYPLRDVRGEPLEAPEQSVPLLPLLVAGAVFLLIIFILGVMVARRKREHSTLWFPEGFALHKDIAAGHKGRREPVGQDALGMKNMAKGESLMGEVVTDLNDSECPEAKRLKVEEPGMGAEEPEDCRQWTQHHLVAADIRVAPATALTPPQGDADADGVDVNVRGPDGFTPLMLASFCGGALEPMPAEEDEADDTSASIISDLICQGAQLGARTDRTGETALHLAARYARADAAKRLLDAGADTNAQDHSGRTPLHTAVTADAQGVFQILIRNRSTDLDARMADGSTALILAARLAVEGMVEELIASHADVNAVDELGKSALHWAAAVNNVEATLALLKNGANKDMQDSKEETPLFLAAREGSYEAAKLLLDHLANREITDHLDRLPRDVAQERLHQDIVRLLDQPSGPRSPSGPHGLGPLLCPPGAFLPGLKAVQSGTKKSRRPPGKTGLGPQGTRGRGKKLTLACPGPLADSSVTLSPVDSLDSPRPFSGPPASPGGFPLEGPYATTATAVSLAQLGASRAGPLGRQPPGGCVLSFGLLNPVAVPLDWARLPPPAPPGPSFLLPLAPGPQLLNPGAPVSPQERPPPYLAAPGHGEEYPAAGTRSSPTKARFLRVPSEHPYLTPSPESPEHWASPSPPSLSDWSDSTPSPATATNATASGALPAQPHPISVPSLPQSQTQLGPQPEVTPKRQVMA
Sequence of Notch3 (E403Q) (Q9UM47 40-2321 E403Q): as the sequence (Q9UM47 40-2321) above, with E364Q counted along it

binding to human Notch3 (human Notch3) | binding to cells expressing wild type Notch1 [2] | binding to Notch3 (E403Q) (Notch3 (E403Q)) | binding to murine Notch3 (murine Notch3) | binding to cells expressing Notch1 E424Q (Notch1 E424Q) | Molecule | formation of Notch ICD in response to DLL4 [1] | tumor growth, T3, combination (T3 breast tumor cells; [3]) | tumor growth, T3 (T3 breast tumor cells; [4]) | blocking of binding between DLL4 and Notch1 (human Notch1) | tumor growth, PE13, combination (PE13 breast tumor cells; [3]) | tumor growth, PE13 (PE13 breast tumor cells; [4])
– | – | – | – | – | C[C@H](NC(=O)Cc1cc(F)cc(F)c1)C(=O)N[C@@H]1C(=O)N(C)c2ccccc2-c2ccccc21 [DBZ, reference compound] | prevented formation of Notch ICD; also recorded: blocked this signaling event | – | – | – | – | –
bound | ability to bind to Notch1 | not Notch3 (E403Q) | bound | not to Notch1(E424Q) | 122R5: lead anti-Notch3 fAb; heavy chain SEQ ID NO: 9, light chain SEQ ID NO: 13; ATCC PTA-8908 (antibody, Synthetic 122R5 Heavy chain; Synthetic 122R5 Light chain) heavy: MKHLWFFLLLVAAPRWVLSQVQLVESGGGLVQPGGSLRLSCAASGFTFSDNAIHWVRQAPGKGLEWVSAISSYGSGTYYADSVKGRFTISRDNSKNTLYLQMNSLRAEDTAVYYCARPGFQFSFTFMDIWGQGTLVTVSSASTKGPSVFPLAPCSRSTSESTAALGCLVKDYFPEPVTVSWNSGALTSGVHTFPAVLQSSGLYSLSSVVTVPSSNFGTQTYTCNVDHKPSNTKVDKTVERKCCVECPPCPAPPVAGPSVFLFPPKPKDTLMISRTPEVTCVVVDVSHEDPEVQFNWYVDGVEVHNAKTKPREEQFNSTFRVVSVLTVVHQDWLNGKEYKCKVSNKGLPAPIEKTISKTKGQPREPQVYTLPPSREEMTKNQVSLTCLVKGFYPSDIAVEWESNGQPENNYKTTPPMLDSDGSFFLYSKLTVDKSRWQQGNVFSCSVMHEALHNHYTQKSLSLSPGK light: MAWALLLLTLLTQGTGSWADIELTQPPSVSVAPGQTARISCSGDALGSKYASWYQQKPGQAPVLVIYDDKNRPSGIPERFSGSNSGNTATLTISGTQAEDEADYYCQSWDGKSKVVFGGGTKLTVLGQPKAAPSVTLFPPSSEELQANKATLVCLISDFYPGAVTVAWKADSSPVKAGVETTTPSKQSNNKYAASSYLSLTPEQWKSHRSYSCQVTHEGSTVEKTVAPTECS | – | – | – | – | – | –
– | – | – | – | – | 90R21: affinity matured anti-Notch1 ligand binding domain antibody; heavy chain SEQ ID NO: 1, light chain SEQ ID NO: 5; ATCC PTA-8909 (antibody, Synthetic 90R21 Heavy chain; Synthetic 90R21 Light chain) heavy: MKHLWFFLLLVAAPRWVLSEVQLLESGGGLVQPGGSLRLSCAASGFTFSNYGMSWVRQAPGKGLEWVSSISGYGSNTYYADSVKGRFTISRDNSKNTLYLQMNSLRAEDTAVYYCARISQQAVWGQGTLVTVSSASTKGPSVFPLAPCSRSTSESTAALGCLVKDYFPEPVTVSWNSGALTSGVHTFPAVLQSSGLYSLSSVVTVPSSNFGTQTYTCNVDHKPSNTKVDKTVERKCCVECPPCPAPPVAGPSVFLFPPKPKDTLMISRTPEVTCVVVDVSHEDPEVQFNWYVDGVEVHNAKTKPREEQFNSTFRVVSVLTVVHQDWLNGKEYKCKVSNKGLPAPIEKTISKTKGQPREPQVYTLPPSREEMTKNQVSLTCLVKGFYPSDIAVEWESNGQPENNYKTTPPMLDSDGSFFLYSKLTVDKSRWQQGNVFSCSVMHEALHNHYTQKSLSLSPGK light: MAWALLLLTLLTQGTGSWAQSALTQPASVSGSPGQSITISCTGTSSDIGGYQYVSWYQQHPGKAPKLMIYYVSNRPSGVSNRFSGSKSGNTASLTISGLQAEDEADYYCQSADSSSWVFGGGTKLTVLGQPKAAPSVTLFPPSSEELQANKATLVCLISDFYPGAVTVAWKADSSPVKAGVETTTPSKQSNNKYAASSYLSLTPEQWKSHRSYSCQVTHEGSTVEKTVAPTECS | prevented formation of Notch ICD; also recorded: inhibited ICD formation | virtually eliminated T3 tumor growth | significantly reduced tumor growth; also recorded: reduced tumor growth significantly | blocked the binding; also recorded: disrupted ligand binding | virtually eliminated tumor growth | significantly reduced tumor growth; also recorded: reduced tumor growth significantly
